Article PMC6486636, “LARP4A recognizes polyA RNA via a novel binding mechanism mediated by disordered regions and involving the PAM2w motif, revealing interplay between PABP, LARP4A and mRNA” (Nucleic Acids Research, 2019)

Assays:
Conditions in all cases: both partners purified
LARP4A NTD W22A = target: T1, LARP4A NTD W22A (human, UniProt Q71RC2 1-287, W22A); assay: pull-down; His-SUMO-MLLE (200 ug) as bait mixed with 250 ug untagged LARP4A protein on ice, Ni-NTA agarose, washes in 50 mM Tris pH 7.25, 100 mM KCl, 0.2 mM EDTA, 1 mM DTT, 10 mM imidazole, elution with 500 mM imidazole, Coomassie SDS-PAGE
T1 construct: LARP4A (LARP4), human, residues 1-287, PAM2w single mutant; Generated from the NTD by site-directed mutagenesis; used untagged; source: E. coli Rosetta II, purified (His-Trap, tag cleaved, nickel column, heparin or DEAE); not shown: His6, N-terminal, cleaved
T1 sequence (Q71RC2 1-287 W22A): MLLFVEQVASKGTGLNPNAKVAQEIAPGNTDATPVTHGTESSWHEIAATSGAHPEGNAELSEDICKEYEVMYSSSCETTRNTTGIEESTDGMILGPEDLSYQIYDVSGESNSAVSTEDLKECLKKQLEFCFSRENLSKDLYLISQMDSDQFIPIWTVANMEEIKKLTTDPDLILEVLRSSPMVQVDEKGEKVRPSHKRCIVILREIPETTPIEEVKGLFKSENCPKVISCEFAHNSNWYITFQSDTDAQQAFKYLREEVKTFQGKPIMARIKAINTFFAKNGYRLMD

[1] = target: T2, LARP4A (1-287), N-terminal domain (human, UniProt Q71RC2 1-287); assay: as above
T2 construct: LARP4A (LARP4), human, residues 1-287 (NTR 1-111 with PAM2w motif 13-26, plus La module 111-287); The NTD was cloned both with a TEV-cleavable His6 tag (pRSFDuet-1) and with a His6-SUMO tag (pET28SUMO, cut by ULP1); also called NTD; LARP4A NTD; source: E. coli Rosetta II, purified (His-Trap, tag cleaved, nickel column, heparin or DEAE); not shown: His6, N-terminal, cleaved
T2 sequence (Q71RC2 1-287): as the sequence (Q71RC2 1-287 W22A) above, with A22W counted along it

LARP4A NTD L15A = target: T3, LARP4A NTD L15A (human, UniProt Q71RC2 1-287, L15A); assay: as above
T3 construct: LARP4A (LARP4), human, residues 1-287, PAM2w single mutant; Generated from the NTD by site-directed mutagenesis; used untagged; source: E. coli Rosetta II, purified (His-Trap, tag cleaved, nickel column, heparin or DEAE); not shown: His6, N-terminal, cleaved
T3 sequence (Q71RC2 1-287 L15A): as the sequence (Q71RC2 1-287 W22A) above, with L15A, A22W counted along it

LARP4A NTD W22F = target: T4, LARP4A NTD W22F (human, UniProt Q71RC2 1-287, W22F); assay: as above
T4 construct: LARP4A (LARP4), human, residues 1-287, PAM2w single mutant; Generated from the NTD by site-directed mutagenesis; used untagged; source: E. coli Rosetta II, purified (His-Trap, tag cleaved, nickel column, heparin or DEAE); not shown: His6, N-terminal, cleaved
T4 sequence (Q71RC2 1-287 W22F): as the sequence (Q71RC2 1-287 W22A) above, with A22F counted along it

[2] = target: T2, LARP4A (1-287), N-terminal domain; assay: native gel or EMSA; competition EMSA: MLLE 12.5-200 uM titrated into a pre-formed complex of 7.5 uM LARP4A NTD and 2 nM 32P-oligoA15; competition constant KC from the fraction of bound RNA

| binding result (LARP4A NTD W22A) | binding result [1] | binding result (LARP4A NTD L15A) | binding result (LARP4A NTD W22F) | binding result [2] | Binder |
| --- | --- | --- | --- | --- | --- |
| binds | binds | binds | binds | – | His-SUMO-MLLE (PABPC1 MLLE domain 544-626 fused with a His-tagged SUMO tag) (domain or fragment, UniProt P11940 544-626, looked up, Fragment 544-626 inserted into pET28SUMO; the tag was kept and used as the handle for Ni-NTA capture; source: E. coli Rosetta II, purified; not shown: His6-SUMO, N-terminal, kept) PLTASMLASAPPQEQKQMLGERLFPLIQAMHPTLAGKITGMLLEIDNSELLHMLESPESLRSKVDEAVAVLQAHQAKEAAQKA |
| – | – | – | – | binds | PABPC1 MLLE (544-626) (domain or fragment, UniProt P11940 544-626, looked up, also called PABP MLLE; MLLE domain; source: E. coli Rosetta II, purified (glutathione agarose, 3C protease, nickel column, SEC); not shown: GST, N-terminal, cleaved) PLTASMLASAPPQEQKQMLGERLFPLIQAMHPTLAGKITGMLLEIDNSELLHMLESPESLRSKVDEAVAVLQAHQAKEAAQKA |
